Laboratory results: publication PMC7382286, “Extensive sequence and structural evolution of Arginase 2 inhibitory antibodies enabled by an unbiased approach to affinity maturation” (Proceedings of the National Academy of Sciences of the …, 2020)

Tests used:
[1] = biological target: T1, recombinant human Arginase 2 (human, UniProt P78540); assay: cell-based or functional assay
[2] = biological target: T1, recombinant human Arginase 2; assay: SEC; Fab and ARG2 in solution; ratio of Fab to ARG2 upon complex formation; settings: both partners purified
[3] = biological target: T1, recombinant human Arginase 2; assay: crystal structure; ARG2-Fab C0020187 complex purified by SEC, crystallised; space group P 6(5) 2 2, 3.25 Å; settings: both partners purified
[4] = biological target: T2, biotinylated recombinant human Arginase 2 (Homo sapiens, UniProt P78540, biotin (biotinylated; site not stated)); assay: BLI; OctetRED96, 25 °C, PBS with 0.01% BSA and 0.002% Tween 20; biotinylated human ARG2 captured on streptavidin sensors, Fabs titrated as analyte; 1:1 binding model (heterogeneous ligand model for C0020187); settings: both partners purified
T2 construct: Arginase 2 (ARG2), human, recombinant; Construct, tags and the way of biotinylation are in the SI Appendix; also called ARG2; biotinylated human ARG2; source: recombinant

[5] = biological target: the molecule itself; assay: crystal structure; ARG2-Fab C0020187 complex purified by SEC, crystallised; space group P 6(5) 2 2, 3.25 Å

| Binder | stoichiometry N [2] | binding result [4] | further results |
| --- | --- | --- | --- |
| Fab C0020187 (Fab, V domains shown, VH of C0020187; Fab heavy-chain constant region; VL of C0020187; Fab light-chain constant region; also called parental antibody; parent Fab C0020187) VH: not shown VL: QSVLTQPPSVSAAPGQKVTISCSGSSSNIGNHYVSWYQQLPGTAPKLLIYDNSERPSGIPDRFSGSKSGTSATLGITGLQTGDEADYYCGTWDSSLSALVFGGGTKLTVL | 1 Fab per ARG2 trimer |  | inhibition of the enzymatic activity of recombinant human ARG2 (1 µg/mL, ~24 nM; urea measured colorimetrically), IC50 [1]: 900 nM; stoichiometry N [3]: 3 Fab per ARG2 trimer; KD of the initial high-affinity binding site (heterogeneous ligand model) [4]: ~10 nM |
| Fab C0021158 (Fab, V domains shown, VH of C0021158; VL of C0021158; Pool-maturation lead; 18 amino acid changes against C0020187) VH: EVQLLESGGGLVQPGGSLRLSCAASGFTFRYEVAAWVRQAPGKGLEWVSAISGPIPKGYYADSVKGRFTISRDNSKNTLYLQMNSLRAEDTAVYYCARLRADLGLYMDLWGRGTLVTVSS VL: QSVLTQPPSVSAAPGQKVTISCSGSSSNIGNHYVSWYQQLPGTAPKLLIYDNSERTAGVPDRFSGSKSGTSATLGITGLQTGDEADYYCGTWDELTSNLVFGGGTKLTVL | 3 Fab per ARG2 trimer |  |  |
| Fab C0021133 (Fab, V domains shown, VH of C0021133; Fab heavy-chain constant region; VL of C0021133; Fab light-chain constant region) VH: EVQLLESGGGLVQPGGSLRLSCAASGFTFRYDHHVWVRQAPGKGLEWVSAISGSGGSTYYADSVKGRFTISRDNSKNTLYLQMNSLRAEDTAVYYCARLRADLGLYMDLWGRGTLVTVSS VL: QSVLTQPPSVSAAPGQKVTVSCSGSSSNIGNHYVSWYQQLPGTAPKLLIYDTTVLSSGIPDRFSGSKSGTSATLGITGLQTGDEADYYCGTWDELTSNLVFGGGTKLTVL |  | binds |  |
| Fab C0021128 (Fab, V domains shown, VH of C0021128; Fab heavy-chain constant region; VL of C0021128; Fab light-chain constant region) VH: EVQLLESGGGLVQPGGSLRLSCAASGFTFQYEVAAWVRQAPGKGLEWVSAISGPIPKGYYADSVKGRFTISRDNSKNTLYLQMNSLRAEDTAVYYCARLRADLGLYMDLWGRGTLVTVSS VL: QSVLTQPPSVSAAPGQKVTISCSGSSSNIGNHYVSWYQQLPGTAPKLLIYDNAIESSGIPDRFSGSKSGTSATLGITGLQTGDGADYYCGTWDSNLSALVFGGGTKLTVL |  | binds |  |
| Fab C0021139 (Fab, V domains shown, VH of C0021139; Fab heavy-chain constant region; VL of C0021139; Fab light-chain constant region) VH: EVQLLESGGGLVQPGGSLRLSCAASGFTFQYDYQVWVRQAPGKGLEWVSAISGSGGSTYYADSVKGRFTISRDNSKNTLYLQMNSLRAEDTAVYYCARLRADLGLYMDLWGRGTLVTVSS VL: QSVLTQPPSVSAAPGQKVTISCSGSSSNIGNHYVSWYQQLPGTAPKLLIYDNSERTSGIPDRFSGSKSGTSATLGITGLQTGDEADYYCGTWDELTSNLVFGGGTKLTVL |  | binds |  |
| Fab C0021181 (Fab, V domains shown, VH of C0021181; VL of C0021181; Pool-maturation lead; 18 amino acid changes against C0020187) VH: EVQLLESGGGLVRPGGSLRLSCAASEFTFRYDYHVWVRQAPGKGLEWVSAISGSGGSTYYADSVKSRFTISRDNSKNTLYLQMNSLRAEDTAVYYCARLRADLGLYMDLWGRGTLVTVSS VL: QSVLTQPPSVSAAPGQKVAVSCSGSSSNIGSHYVSWYQQLPGTAPKLLIYDNSERTSGIPDRFSGSKSGTSATLGITGLQTGDEADYYCGTWDELTSNLVFGGGTRLTVL | 3 Fab per ARG2 trimer |  |  |
| recombinant human Arginase 2 (enzyme, Arginase 2 (ARG2), human, recombinant; also called ARG2; trimeric ARG2; source: recombinant) VHSVAVIGAPFSQGQKRKGVEHGPAAIREAGLMKRLSSLGCHLKDFGDLSFTPVPKDDLYNNLIVNPRSVGLANQELAEVVSRAVSDGYSCVTLGGDHSLAIGTISGHARHCPDLCVVWVDAHADINTPLTTSSGNLHGQPVSFLLRELQDKVPQLPGFSWIKPCISSASIVYIGLRDVDPPEHFILKNYDIQYFSMRDIDRLGIQKVMERTFDLLIGKRQRPIHLSFDIDAFDPTLAPATGTPVVGGLTYREGMYIAEEIHNTGLLSALDLVEVNPQLATSEEEAKTTANLAVDVIASSFGQTREGGHIVYDQLPTPSSPDESENQARVRI |  |  | stoichiometry N [5]: 3 |
| Fab C0021177 (Fab, V domains shown, VH of C0021177; VL of C0021177; Pool-maturation lead) VH: EVQLLESGGGLVQPGGSLRLSCAASGFTFRYEVAAWVRQAPGKGLEWVSAISGPAPKGYYADSVKGRFTISRDNSKNTLYLQMNSLRAEDTAVYYCARLRADLGLYMDLWGRGTLVTVSS VL: QSELTQPPTASAAPGQKVTISCSGSSSNIGNHYVSWYQQLPGTAPKLLIYDTTVLSSGIPDRFSGSKSGTSATLGITGLQTGDEADYYCGTWDELTSNLVFGGGTKLTVL | 3 Fab per ARG2 trimer |  |  |
